These results are taken from patent US20230357348A1 (AstraZeneca / MedImmune, published 2023).

Starred links: 1 amine or outer side, 2 acyl side, 3 side chain; linkers in the order of their positions; H or OH if unused. Non-standard residues stand in square brackets, D forms with d. Groups on a side chain read outwards from the residue. No end group written: not given here. *: point of attachment. Trp(5-Br) = N[C@@H](Cc1c[nH]c2ccc(Br)cc12)C(=O)O; Bip = N[C@@H](Cc1ccc(-c2ccccc2)cc1)C(=O)O; C18 diacid = O=C(O)CCCCCCCCCCCCCCCCC(=O)*; γGlu = O=C(O)[C@H](CCC(=O)[*:2])N[*:1]; αMeF = C[C@](N)(Cc1ccccc1)C(=O)O; AEEA = NCCOCCOCC(=O)O; Aib = CC(C)(N)C(=O)O

For assay [1], the target named is human glucagon receptor (hGCGR) (human, UniProt P47871 26-477). The experiment in a line: cell-based or functional assay.
For assay [2], the target named is human GLP-1 receptor (hGLP-1R) (human, UniProt P43220 24-463). The experiment in a line: cell-based or functional assay.

Sequence of human glucagon receptor (hGCGR) (P47871 26-477): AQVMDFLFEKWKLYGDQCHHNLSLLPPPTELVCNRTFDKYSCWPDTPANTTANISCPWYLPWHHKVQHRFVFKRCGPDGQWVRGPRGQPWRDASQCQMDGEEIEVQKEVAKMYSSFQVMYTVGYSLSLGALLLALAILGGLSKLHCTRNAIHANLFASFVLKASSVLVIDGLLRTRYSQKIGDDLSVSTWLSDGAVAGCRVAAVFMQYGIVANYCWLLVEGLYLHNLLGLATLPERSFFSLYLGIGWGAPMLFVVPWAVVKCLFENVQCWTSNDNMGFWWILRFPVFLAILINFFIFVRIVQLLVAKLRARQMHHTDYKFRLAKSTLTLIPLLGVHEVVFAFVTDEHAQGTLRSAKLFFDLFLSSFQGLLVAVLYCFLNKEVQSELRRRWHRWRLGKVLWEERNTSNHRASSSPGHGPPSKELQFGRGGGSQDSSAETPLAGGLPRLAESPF

B1: Peptide 429 (peptide)
peptide: H[Aib]QGTFTSDVSK[αMeF]LDSK([AEEA-AEEA-γGlu-C18 diacid])RAQDFVRWLEA[Aib]G-NH2
modifications: N-terminus assumed
SMILES: CC(C)C[C@H](NC(=O)[C@H](Cc1c[nH]c2ccccc12)NC(=O)[C@H](CCCNC(=N)N)NC(=O)[C@@H](NC(=O)[C@H](Cc1ccccc1)NC(=O)[C@H](CC(=O)O)NC(=O)[C@H](CCC(N)=O)NC(=O)[C@H](C)NC(=O)[C@H](CCCNC(=N)N)NC(=O)[C@H](CCCCNC(=O)COCCOCCNC(=O)COCCOCCNC(=O)CC[C@H](NC(=O)CCCCCCCCCCCCCCCCC(=O)O)C(=O)O)NC(=O)[C@H](CO)NC(=O)[C@H](CC(=O)O)NC(=O)[C@H](CC(C)C)NC(=O)[C@](C)(Cc1ccccc1)NC(=O)[C@H](CCCCN)NC(=O)[C@H](CO)NC(=O)[C@@H](NC(=O)[C@H](CC(=O)O)NC(=O)[C@H](CO)NC(=O)[C@@H](NC(=O)[C@H](Cc1ccccc1)NC(=O)[C@@H](NC(=O)CNC(=O)[C@H](CCC(N)=O)NC(=O)C(C)(C)NC(=O)[C@@H](N)Cc1c[nH]cn1)[C@@H](C)O)[C@@H](C)O)C(C)C)C(C)C)C(=O)N[C@@H](CCC(=O)O)C(=O)N[C@@H](C)C(=O)NC(C)(C)C(=O)NCC(N)=O
With B1, the “hGluc-R EC50 (pM)” value in assay [1] came out at 144 pM. Besides, the “hGLP-1R EC50 (pM)” value in assay [2] stood at 15 pM.

B2: Peptide 432 (peptide)
peptide: H[Aib]QGTFTSDVSK[αMeF]LDSK([AEEA-AEEA-γGlu-C18 diacid])RAQDFVR[Bip]LL[Aib]E-OH
modifications: N-terminus assumed
SMILES: CC(C)C[C@H](NC(=O)[C@H](Cc1ccc(-c2ccccc2)cc1)NC(=O)[C@H](CCCNC(=N)N)NC(=O)[C@@H](NC(=O)[C@H](Cc1ccccc1)NC(=O)[C@H](CC(=O)O)NC(=O)[C@H](CCC(N)=O)NC(=O)[C@H](C)NC(=O)[C@H](CCCNC(=N)N)NC(=O)[C@H](CCCCNC(=O)COCCOCCNC(=O)COCCOCCNC(=O)CC[C@H](NC(=O)CCCCCCCCCCCCCCCCC(=O)O)C(=O)O)NC(=O)[C@H](CO)NC(=O)[C@H](CC(=O)O)NC(=O)[C@H](CC(C)C)NC(=O)[C@](C)(Cc1ccccc1)NC(=O)[C@H](CCCCN)NC(=O)[C@H](CO)NC(=O)[C@@H](NC(=O)[C@H](CC(=O)O)NC(=O)[C@H](CO)NC(=O)[C@@H](NC(=O)[C@H](Cc1ccccc1)NC(=O)[C@@H](NC(=O)CNC(=O)[C@H](CCC(N)=O)NC(=O)C(C)(C)NC(=O)[C@@H](N)Cc1c[nH]cn1)[C@@H](C)O)[C@@H](C)O)C(C)C)C(C)C)C(=O)N[C@@H](CC(C)C)C(=O)NC(C)(C)C(=O)N[C@@H](CCC(=O)O)C(=O)O
Regarding B2, the “hGluc-R EC50 (pM)” value in assay [1] was found to be 1160 pM. Also, the “hGLP-1R EC50 (pM)” value in assay [2] was determined as 1380 pM.
As to H[Aib]QGTFTSDVSK[αMeF]LDTK([AEEA-AEEA-γGlu-γGlu-C18 diacid])RARDFVQWLLE[Aib]G (not fully specified (C-terminus)) [Peptide 428], the “hGluc-R EC50 (pM)” value in assay [1] stood at 10.5 pM. Also, the “hGLP-1R EC50 (pM)” value in assay [2] turned out to be 33.1 pM.

B3: Peptide 425 (peptide)
peptide: H[Aib]QGTFTSDVSK[αMeF]LDKK([AEEA-AEEA-γGlu-C18 diacid])RAQDFVRWLKA[Aib]G-OH
modifications: N-terminus assumed
SMILES: CC(C)C[C@H](NC(=O)[C@H](Cc1c[nH]c2ccccc12)NC(=O)[C@H](CCCNC(=N)N)NC(=O)[C@@H](NC(=O)[C@H](Cc1ccccc1)NC(=O)[C@H](CC(=O)O)NC(=O)[C@H](CCC(N)=O)NC(=O)[C@H](C)NC(=O)[C@H](CCCNC(=N)N)NC(=O)[C@H](CCCCNC(=O)COCCOCCNC(=O)COCCOCCNC(=O)CC[C@H](NC(=O)CCCCCCCCCCCCCCCCC(=O)O)C(=O)O)NC(=O)[C@H](CCCCN)NC(=O)[C@H](CC(=O)O)NC(=O)[C@H](CC(C)C)NC(=O)[C@](C)(Cc1ccccc1)NC(=O)[C@H](CCCCN)NC(=O)[C@H](CO)NC(=O)[C@@H](NC(=O)[C@H](CC(=O)O)NC(=O)[C@H](CO)NC(=O)[C@@H](NC(=O)[C@H](Cc1ccccc1)NC(=O)[C@@H](NC(=O)CNC(=O)[C@H](CCC(N)=O)NC(=O)C(C)(C)NC(=O)[C@@H](N)Cc1c[nH]cn1)[C@@H](C)O)[C@@H](C)O)C(C)C)C(C)C)C(=O)N[C@@H](CCCCN)C(=O)N[C@@H](C)C(=O)NC(C)(C)C(=O)NCC(=O)O
For B3, the “hGluc-R EC50 (pM)” value in assay [1] worked out at 827 pM. In assay [2], the “hGLP-1R EC50 (pM)” value came out at 11.5 pM.

B4: Peptide 431 (peptide)
peptide: H[Aib]QGTFTSDVSK[αMeF]LDTK([AEEA-AEEA-γGlu-γGlu-C18 diacid])RAQDFVAWLEA[Aib]G-NH2
modifications: N-terminus assumed
SMILES: CC(C)C[C@H](NC(=O)[C@H](Cc1c[nH]c2ccccc12)NC(=O)[C@H](C)NC(=O)[C@@H](NC(=O)[C@H](Cc1ccccc1)NC(=O)[C@H](CC(=O)O)NC(=O)[C@H](CCC(N)=O)NC(=O)[C@H](C)NC(=O)[C@H](CCCNC(=N)N)NC(=O)[C@H](CCCCNC(=O)COCCOCCNC(=O)COCCOCCNC(=O)CC[C@H](NC(=O)CC[C@H](NC(=O)CCCCCCCCCCCCCCCCC(=O)O)C(=O)O)C(=O)O)NC(=O)[C@@H](NC(=O)[C@H](CC(=O)O)NC(=O)[C@H](CC(C)C)NC(=O)[C@](C)(Cc1ccccc1)NC(=O)[C@H](CCCCN)NC(=O)[C@H](CO)NC(=O)[C@@H](NC(=O)[C@H](CC(=O)O)NC(=O)[C@H](CO)NC(=O)[C@@H](NC(=O)[C@H](Cc1ccccc1)NC(=O)[C@@H](NC(=O)CNC(=O)[C@H](CCC(N)=O)NC(=O)C(C)(C)NC(=O)[C@@H](N)Cc1c[nH]cn1)[C@@H](C)O)[C@@H](C)O)C(C)C)[C@@H](C)O)C(C)C)C(=O)N[C@@H](CCC(=O)O)C(=O)N[C@@H](C)C(=O)NC(C)(C)C(=O)NCC(N)=O
In the case of B4, in assay [1], the “hGluc-R EC50 (pM)” value came to 194 pM. Moreover, the “hGLP-1R EC50 (pM)” value in assay [2] amounted to 44.6 pM.

B5: Peptide 426 (peptide)
peptide: H[Aib]QGTFTSDVSK[αMeF]LDKK([AEEA-AEEA-γGlu-C18 diacid])RAQDFVRWLLR[Aib]K-OH
modifications: N-terminus assumed
SMILES: CC(C)C[C@H](NC(=O)[C@H](Cc1c[nH]c2ccccc12)NC(=O)[C@H](CCCNC(=N)N)NC(=O)[C@@H](NC(=O)[C@H](Cc1ccccc1)NC(=O)[C@H](CC(=O)O)NC(=O)[C@H](CCC(N)=O)NC(=O)[C@H](C)NC(=O)[C@H](CCCNC(=N)N)NC(=O)[C@H](CCCCNC(=O)COCCOCCNC(=O)COCCOCCNC(=O)CC[C@H](NC(=O)CCCCCCCCCCCCCCCCC(=O)O)C(=O)O)NC(=O)[C@H](CCCCN)NC(=O)[C@H](CC(=O)O)NC(=O)[C@H](CC(C)C)NC(=O)[C@](C)(Cc1ccccc1)NC(=O)[C@H](CCCCN)NC(=O)[C@H](CO)NC(=O)[C@@H](NC(=O)[C@H](CC(=O)O)NC(=O)[C@H](CO)NC(=O)[C@@H](NC(=O)[C@H](Cc1ccccc1)NC(=O)[C@@H](NC(=O)CNC(=O)[C@H](CCC(N)=O)NC(=O)C(C)(C)NC(=O)[C@@H](N)Cc1c[nH]cn1)[C@@H](C)O)[C@@H](C)O)C(C)C)C(C)C)C(=O)N[C@@H](CC(C)C)C(=O)N[C@@H](CCCNC(=N)N)C(=O)NC(C)(C)C(=O)N[C@@H](CCCCN)C(=O)O
For the molecule B5, the “hGluc-R EC50 (pM)” value in assay [1] came out at 61.2 pM. Further, in assay [2], the “hGLP-1R EC50 (pM)” value turned out to be 7.3 pM.

B6: Peptide 434 (peptide)
peptide: H[Aib]QGTFTSDVSK[αMeF]LDSK([AEEA-AEEA-γGlu-C18 diacid])RAQDFVR[Trp(5-Br)]LL[Aib]E-OH
modifications: N-terminus assumed
SMILES: CC(C)C[C@H](NC(=O)[C@H](Cc1c[nH]c2ccc(Br)cc12)NC(=O)[C@H](CCCNC(=N)N)NC(=O)[C@@H](NC(=O)[C@H](Cc1ccccc1)NC(=O)[C@H](CC(=O)O)NC(=O)[C@H](CCC(N)=O)NC(=O)[C@H](C)NC(=O)[C@H](CCCNC(=N)N)NC(=O)[C@H](CCCCNC(=O)COCCOCCNC(=O)COCCOCCNC(=O)CC[C@H](NC(=O)CCCCCCCCCCCCCCCCC(=O)O)C(=O)O)NC(=O)[C@H](CO)NC(=O)[C@H](CC(=O)O)NC(=O)[C@H](CC(C)C)NC(=O)[C@](C)(Cc1ccccc1)NC(=O)[C@H](CCCCN)NC(=O)[C@H](CO)NC(=O)[C@@H](NC(=O)[C@H](CC(=O)O)NC(=O)[C@H](CO)NC(=O)[C@@H](NC(=O)[C@H](Cc1ccccc1)NC(=O)[C@@H](NC(=O)CNC(=O)[C@H](CCC(N)=O)NC(=O)C(C)(C)NC(=O)[C@@H](N)Cc1c[nH]cn1)[C@@H](C)O)[C@@H](C)O)C(C)C)C(C)C)C(=O)N[C@@H](CC(C)C)C(=O)NC(C)(C)C(=O)N[C@@H](CCC(=O)O)C(=O)O
Turning to B6, in assay [1], the “hGluc-R EC50 (pM)” value is 294 pM. The “hGLP-1R EC50 (pM)” value in assay [2] amounted to 153 pM.

B7: Peptide 430 (peptide)
peptide: H[Aib]QGTFTSDVSK[αMeF]LDSK([AEEA-AEEA-γGlu-γGlu-C18 diacid])RAQDFVRWLEA[Aib]G-NH2
modifications: N-terminus assumed
SMILES: CC(C)C[C@H](NC(=O)[C@H](Cc1c[nH]c2ccccc12)NC(=O)[C@H](CCCNC(=N)N)NC(=O)[C@@H](NC(=O)[C@H](Cc1ccccc1)NC(=O)[C@H](CC(=O)O)NC(=O)[C@H](CCC(N)=O)NC(=O)[C@H](C)NC(=O)[C@H](CCCNC(=N)N)NC(=O)[C@H](CCCCNC(=O)COCCOCCNC(=O)COCCOCCNC(=O)CC[C@H](NC(=O)CC[C@H](NC(=O)CCCCCCCCCCCCCCCCC(=O)O)C(=O)O)C(=O)O)NC(=O)[C@H](CO)NC(=O)[C@H](CC(=O)O)NC(=O)[C@H](CC(C)C)NC(=O)[C@](C)(Cc1ccccc1)NC(=O)[C@H](CCCCN)NC(=O)[C@H](CO)NC(=O)[C@@H](NC(=O)[C@H](CC(=O)O)NC(=O)[C@H](CO)NC(=O)[C@@H](NC(=O)[C@H](Cc1ccccc1)NC(=O)[C@@H](NC(=O)CNC(=O)[C@H](CCC(N)=O)NC(=O)C(C)(C)NC(=O)[C@@H](N)Cc1c[nH]cn1)[C@@H](C)O)[C@@H](C)O)C(C)C)C(C)C)C(=O)N[C@@H](CCC(=O)O)C(=O)N[C@@H](C)C(=O)NC(C)(C)C(=O)NCC(N)=O
In the case of B7, the “hGluc-R EC50 (pM)” value in assay [1] is 160 pM. In assay [2], the “hGLP-1R EC50 (pM)” value was 24.4 pM.
In the case of H[Aib]QGTFTSDVSK[αMeF]LDTK([AEEA-AEEA-γGlu-C18 diacid])RARDFVQWLLE[Aib]G (not fully specified (C-terminus)) [Peptide 427], in assay [1], the “hGluc-R EC50 (pM)” value worked out at 47.2 pM. Also, in assay [2], the “hGLP-1R EC50 (pM)” value worked out at 12.4 pM.
